Molecular target: T1, TGF-β2
T1 sequence (P61812 303-414, species assumed, looked up): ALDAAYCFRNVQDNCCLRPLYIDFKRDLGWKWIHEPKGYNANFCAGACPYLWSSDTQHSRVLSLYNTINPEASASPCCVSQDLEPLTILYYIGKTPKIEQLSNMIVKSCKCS
Assay: cell-based or functional assay

relative potency (EC50 of the reference divided by EC50 of the test sample) in mink lung cell proliferation assay with PrestoBlue read-out: ~1 ratio (relative potency)
B1: Ab1 (antibody, human IgG4 S228P, kappa, V domains shown)
VH: QVQLVQSGAEVKKPGSSVKVSCKASGYTFSSNVISWVRQAPGQGLEWMGGVIPIVDIANYAQRFKGRVTITADESTSTTYMELSSLRSEDTAVYYCASTLGLVLDAMDYWGQGTLVTVSS
VL: ETVLTQSPGTLSLSPGERATLSCRASQSLGSSYLAWYQQKPGQAPRLLIYGASSRAPGIPDRFSGSGSGTDFTLTISRLEPEDFAVYYCQQYADSPITFGQGTRLEIKR

Reference: patent US20230036928A1 (Sanofi, published 2023)
